Test results from paper PMC4500839 (Nature communications, 2015).

Biological target: gp120BaL (HIV-1 group M subtype B, isolate BaL …, UniProt Q6TAP7, strain)
Experiment: ELISA

B1: PGT128 (antibody, V domains shown)
VH: QPQLQESGPTLVEASETLSLTCAVSGDSTAACNSFWGWVRQPPGKGLEWVGSLSHCASYWNRGWTYHNPSLKSRLTLALDTPKNLVFLKLNSVTAADTATYYCARFGGEVLRYTDWPKPAWVDLWGRGTLVTVSS
VL: QSALTQPPSASGSPGQSITISCTGTSNNFVSWYQQHAGKAPKLVIYDVNKRPSGVPDRFSGSKSGNTASLTVSGLQTDDEAVYYCGSLVGNWDVIFGGGTKLTVL
  binding result: binds
